In paper PMC2954336, “Biophysical characterization of recombinant proteins: A key to higher structural genomics success” (Journal of Structural Biology, 2010):
Ends that are not written are not given here. fluorescein = fluorescein label on the N-terminus of the peptide (end-label); Me2 = dimethyl on Lys

Target: WDR5 (WD repeat domain 5) (UniProt P61964 1-334)
Experiment: fluorescence polarisation; 36 nM fluorescein-labeled peptide titrated with WDR5 from 30 nM to 30 uM; 100 mM potassium phosphate buffer pH 8, 0.01% Triton X-100; data fitted to a hyperbolic equation
Conditions: both partners purified

Kd: 100 ± 9 nM
Binder: fluorescein-ARTK(Me2)QTARKST [11-mer fluorescein-labeled histone H3 peptide dimethylated on lysine 4 (F-H3K4Me2)]
